“Also recorded” adds a separate entry of the source. No end group written: not given here.
How the values were obtained:
human PTH-1 receptors [1] = target: T1, human PTH-1 receptors (Homo sapiens, UniProt Q03431); assay: PLC activation (IP3 formation) in HKRK B7 cells; assay type: cell-based; settings: for EC50: read-out: EC50 for PLC activation (IP3 formation); for IP3 Formation (% Maximum): % of maximal response to hPTH-(1-34); for PLC activation (IP3 formation), result in words: up to 1000 nM or 10 μM; for PLC activation, percent of basal: 1000 nM peptide
T1 construct: expressed in transfected cells
T1 sequence (Q03431 27-593): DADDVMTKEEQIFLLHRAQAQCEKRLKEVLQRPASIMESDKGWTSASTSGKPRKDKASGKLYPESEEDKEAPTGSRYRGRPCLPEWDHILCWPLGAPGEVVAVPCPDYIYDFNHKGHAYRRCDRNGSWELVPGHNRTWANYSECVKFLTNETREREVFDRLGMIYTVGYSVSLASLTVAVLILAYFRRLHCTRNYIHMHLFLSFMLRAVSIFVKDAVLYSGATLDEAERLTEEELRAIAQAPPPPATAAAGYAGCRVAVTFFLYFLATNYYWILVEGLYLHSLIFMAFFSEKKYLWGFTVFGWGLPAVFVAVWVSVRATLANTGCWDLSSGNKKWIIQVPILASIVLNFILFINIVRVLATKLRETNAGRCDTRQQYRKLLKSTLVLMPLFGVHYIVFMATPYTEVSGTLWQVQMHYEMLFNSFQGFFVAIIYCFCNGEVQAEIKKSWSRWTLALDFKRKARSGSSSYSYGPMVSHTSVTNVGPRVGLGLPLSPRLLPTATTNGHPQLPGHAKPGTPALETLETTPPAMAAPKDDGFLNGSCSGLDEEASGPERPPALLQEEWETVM
Description: (§1) HKRK B7 or EW5 cells (32), subclones of LLC-PKI renal epithelial cells that stably express human or rat PTH-1 receptors (950,000 and 320,000 receptors/cell, respectively), were maintained under 5% CO2 in air in Dulbecco's modified essential medium containing 7% fetal bovine serum (FBS) and 1% penicillin/streptomycin (GIBCO-BRL, Grand Island, N.Y.). HEK-293 and COS-7 cells were cultured similarly, except that 10% FBS was used in the medium. Cells were seeded into 24-well plates two days before assay at a density of 2-2.5×10^5 cells/well (HKRK B7 or EW 5 cells) or 6×10^5 cells/well (in 6-well plates) (HEK-293 cells). In experiments involving HEK-293 cells, DNA transfections were performed 24 hr after plating and inositol radiolabel was added 24 hr thereafter (see below). COS-7 cell transfections were performed as previously described (Gardella, T. J., et al., Endocrinology 132(5):2024-2030 (1993))
PLC was activated by PTH agonists in the presence of 30 mM LiCl at 37° C. for 30 min after 16 hr of labeling with [^3H]myo-inositol (3 uCi/ml) in serum-free medium containing 0.1% bovine serum albumin. The reactions were stopped by rapid aspiration and addition of cold 5% TCA. Water-soluble radiolabeled inositol trisphosphate (IP3) was isolated after ether extraction by ion-exchange chromatography (Guo, J., et al., Endocrinology 136(9):3884-3891 (1995)). In experiments involving HEK 293 cells, cells previously transfected with human PTHR cDNA (in the pcDNA1 expression vector HKRK) using Lipofectamine (Gibco BRL) were labeled with [^3H]myo-inositol and assayed as described above, except that total water-soluble [^3H]inositol polyphosphates were collected as a single fraction from the ion-exchange columns.

human PTH-1 receptors [2] = target: T1, human PTH-1 receptors; assay: Intracellular cAMP accumulation (adenylyl cyclase, AC, activation) in HKRK B7 cells; assay type: cell-based; settings: for Cyclic AMP accumulation (% Maximum): % of maximal response to hPTH-(1-34), HKRK B7; for AC activation (cAMP accumulation), result in words: HKRK B7 cells, compared with hPTH-(1-34) or parent peptide
Description: as §1, with “(1993)) Intracellular cAMP accumulation, PLC activation and PTHR binding affinity were measured as previously reported (Bringhurst, F. R., et al., Endocrinology 132(5):2090-2098 (1993); Guo, J., et al., Endocrinology 136(9):3884-3891 (1995)). Intracellular cAMP accumulation was measured in extracts of cells that were exposed to human PTH peptides in the presence of isobutylmethyxanthine (IBMX, 1 mM) at 37° C. for 15 min. After terminating the reactions by aspiration and freezing in liquid nitrogen, cell monolayers were extracted with 50 mM HCl and cAMP was measured using a radioimmunoassay kit (Dupont-New England Nuclear, Boston, Mass.).” for “(1993))”

human PTH-1 receptors [3] = target: T1, human PTH-1 receptors; assay: Radioligand competition binding with 125I-[Nle8,21,Tyr34]rat PTH-(1-34) in HKRK B7 cells
Description: as §1, with “(1993)) Radioligand competition binding assays were performed at 2-8° C. for 6 hr using ^125I-[Nle^8,21,[…]]rat PTH-(1-34) (100,000 cpm/well) in the presence or absence of non-radioactive hPTH-(1-34) analogs. Cell layers were washed three times before solubilization for determination of cell-associated radioactivity.” for “(1993))”

membrane-bound PKCs = settings: osteoblast-like ROS 17/2 cells; Neugebauer et al. 1995; cited from earlier work
human PTH-1 receptors [4] = target: T1, human PTH-1 receptors; settings: HKRK B7 cells; Takasu and Bringhurst 1998; cited from earlier work
human PTH-1 receptors [5] = target: T1, human PTH-1 receptors; settings: HKRK B7 cells; Takasu and Bringhurst 1998; cited from earlier work; remark: listed apart in the source

## AVSEIQLMHNLGKHLNSMERVEWLRKKL-NH2 [[Ala^1]hPTH-(1-28)]
Human PTH-1 receptors [1]; HKRK B7 cells
  EC50: 1000 nM

## AVSEIQLMHNLGKHLNSMRRVEWLRKK [[Ala^1,Arg^19]hPTH-(1-27)]
Human PTH-1 receptors [2]; 0.01 nM
  Cyclic AMP accumulation (% Maximum): −0.2 ± 0.1 % Maximum
Human PTH-1 receptors [2]; 0.1 nM
  Cyclic AMP accumulation (% Maximum): 0.6 ± 0.3 % Maximum
Human PTH-1 receptors [2]; 1 nM
  Cyclic AMP accumulation (% Maximum): 7 ± 0.6 % Maximum
Human PTH-1 receptors [2]; 10 nM
  Cyclic AMP accumulation (% Maximum): 50 ± 5.1 % Maximum
Human PTH-1 receptors [2]; 100 nM
  Cyclic AMP accumulation (% Maximum): 92 ± 15 % Maximum
Human PTH-1 receptors [2]; 1000 nM
  Cyclic AMP accumulation (% Maximum): 99 ± 8.8 % Maximum
Human PTH-1 receptors [1]; 1000 nM, HKRK B7
  IP3 Formation (% Maximum): 1.5 ± 4.8 % Maximum
Human PTH-1 receptors [1]; 10000 nM, HKRK B7
  IP3 Formation (% Maximum): 6.9 ± 10 % Maximum

## AVSEIQLMHNLGKHLNSMRRVEWLRKKL-NH2 [[Ala^1,Arg^19]hPTH-(1-28)]
Human PTH-1 receptors [2]
  AC activation (cAMP accumulation), result in words: indistinguishable from that of hPTH-(1-34)
Human PTH-1 receptors [1]; HKRK B7 cells
  EC50: 200 nM
Human PTH-1 receptors [1]; over [Ala^1]hPTH-(1-28), HKRK B7
  fold improvement of EC50 for PLC activation by the Arg^19 modification: 5 fold

## GlyValSerGluIleGInLeuMetHisAsnLeuGlyLysHisLeuAsnSerMetGluArgVal GluTrpLeuArgLysLysLeu (GVSEIQLMHNLGKHLNSMERVEWLRKKL; listed as Homo sapiens) [[Gly^1]hPTH-(1-28)]
Human PTH-1 receptors [1]; HKRK B7 cells
  PLC activation (IP3 formation), result in words: selectively eliminated PLC signaling, apart from a weak response at 10 μM
Human PTH-1 receptors [3]
  binding affinity, result in words: modestly impaired

## SVSEIQLMHNLGKHLNSMRRVEWLRKKL-NH2 [[Arg^19]hPTH-(1-28)]
Human PTH-1 receptors [2]
  AC activation (cAMP accumulation), result in words: unaffected
Human PTH-1 receptors [1]; HKRK B7 cells
  EC50: 300 nM
  PLC activation (IP3 formation), result in words: maximally activated
Human PTH-1 receptors [3]; read-out: apparent IC50 for binding
  IC50: 100 nM

## SerValSerGluIleGlnLeuMetHisAsnLeuGlyLysHis LeuAsnSerMetGluArgValGluTrpLeuArgLysLys (SVSEIQLMHNLGKHLNSMERVEWLRKK-NH2; listed as Homo sapiens) [hPTH-(1-27)]
membrane-bound PKCs
  stimulation of activity of membrane-bound PKCs: incapable of stimulating

## [Ala^1]hPTH-(1-34): hPTH-(1-34) with Ala^1 for Ser^1 [reference compound]
Human PTH-1 receptors [2]
  AC activation (cAMP accumulation), result in words: indistinguishable from hPTH-(1-34)
Human PTH-1 receptors [1]; HKRK B7 cells
  PLC activation (IP3 formation), result in words: indistinguishable from hPTH-(1-34)
Human PTH-1 receptors [3]
  binding affinity, result in words: indistinguishable from hPTH-(1-34)

## [Gly^1]hPTH-(1-34): hPTH-(1-34) with Gly^1 for Ser^1 [reference compound]
Human PTH-1 receptors [2]
  AC activation (cAMP accumulation), result in words: unchanged
Human PTH-1 receptors [1]; 1000 nM, highest concentration tested, HKRK B7 cells
  PLC activity as % of the hPTH-(1-34) maximum: 25%
Human PTH-1 receptors [3]
  binding affinity, result in words: unchanged

## [Tyr^0]hPTH-(1-34): hPTH-(1-34) with a tyrosine residue interposed at the N-terminus; purchased from Sigma (YSVSEIQLMHNLGKHLNSMERVEWLRKKLQDVHNF) [reference compound]
Human PTH-1 receptors [1]; HKRK B7 cells
  PLC activation, percent of basal: 105±5% of basal

## desamino-hPTHrP(1-36): hPTHrP(1-36) with the α-amino group removed [reference compound]
Human PTH-1 receptors [1]; HKRK B7 cells
  PLC activation, percent of basal: 101±6% of basal

## hPTH-(1-24): C-truncated human PTH peptide (SVSEIQLMHNLGKHLNSMERVEWL)
Human PTH-1 receptors [2]
  AC activation (cAMP accumulation), result in words: only minimally active

## hPTH-(1-25): C-truncated human PTH peptide (SVSEIQLMHNLGKHLNSMERVEWLR)
Human PTH-1 receptors [2]
  AC activation (cAMP accumulation), result in words: nearly identical

## hPTH-(1-26): C-truncated human PTH peptide (SVSEIQLMHNLGKHLNSMERVEWLRK)
membrane-bound PKCs
  stimulation of activity of membrane-bound PKCs: incapable of stimulating

## hPTH-(1-30): C-truncated human PTH peptide (SVSEIQLMHNLGKHLNSMERVEWLRKKLQD-NH2; UniProt P01270 32-61, looked up, fragment)
membrane-bound PKCs
  stimulation of activity of membrane-bound PKCs: incapable of stimulating
Human PTH-1 receptors [4]
  AC activation, previously reported: fully activated
Human PTH-1 receptors [5]
  PLC activation, previously reported: fully activated

## hPTH-(1-31): C-truncated human PTH peptide
Human PTH-1 receptors [4]
  AC activation, previously reported: fully activated
Human PTH-1 receptors [5]
  PLC activation, previously reported: fully activated

## hPTH-(2-34): hPTH-(1-34) lacking residue 1 (VSEIQLMHNLGKHLNSMERVEWLRKKLQDVHNY) [reference compound]
Human PTH-1 receptors [2]
  AC activation (cAMP accumulation), result in words: comparable in magnitude and sensitivity to that of hPTH-(1-34); also recorded: equipotent with hPTH-(1-34)
Human PTH-1 receptors [1]; HKRK B7 cells
  PLC activation (IP3 formation), result in words: did not elicit PLC activity

## hPTHrP(1-36): human PTH-related peptide fragment 1-36 [reference compound]
Human PTH-1 receptors [1]; HKRK B7 cells
  PLC activation, percent of basal: 178±12% of basal
